Laboratory results from US20120207777A1 (Novartis, published 2012).

Target: the molecule itself
Experiment: gel filtration and gel analysis with and without DTT (self-association)

B1: Recombinant His-tagged AcfD (orf3526) from strain IHE3034 without a leader peptide (other)
chain: CDGGGSGSSSDTPSVDSGSGTLPEVKPDPTPTPEPTPEPTPDPEPTPDPTPDPEPTPEPEPEPVPTKTGYLTLGGSQRVTGATCNGESSDGFTFTPGNTVSCVVGSTTIATFNTQSEAARSLRAVDKVSFSLEDAQELANSENKKTNAISLVTSSDSCPADAEQLCLTFSSVVDRARFEKLYKQIDLATDNFSKLVNEEVENNAATDKAPSTHTSTVVPVTTEGTKPDLNASFVSANAEQFYQYQPTEIILSEGQLVDSLGNGVAGVDYYTNSGRGVTDENGKFSFSWGETISFGIDTFELGSVRGNKSTIALTELGDEVRGANIDQLIHRYSTTGQNNTRVVPDDVRKVFAEYPNVINEIINLSLSNGATLDEGDQNVVLPNEFIEQFKTGQAKEIDTAICAKTDGCNEARWFSLTTRNVNDGQIQGVINKLWGVDTNYQSVSKFHVFHDSTNFYGSTGNARGQAVVNISNSAFPILMARNDKNYWLAFGEKRAWDKNELAYITEAPSIVQPENVTRDTATFNLPFISLGQVGEGKLMVIGNPHYNSILRCPNGYSWGGGVNSKGECTLSGDSDDMKHFMQNVLRYLSNDIWQPNTKSIMTVGTNLENVYFKKAGQVLGNSAPFAFHEDFTGITVKQLTSYGDLNPEEIPLLILNGFEYVTQWSGDPYAVPLRADTSKPKLTQQDVTDLIAYLNKGGSVLIMENVMSNLKEESASSFVRLLDAAGLSMALNKSVVNNDPQGYPDRVRQRRATGIWVYERYPAADGAQPPYTIDPNTGEVTWKYQQDNKPDDKPKLEVASWQEEVEGKQVTRYAFIDEAEYTTEESLEAAKAKIFEKFPGLQECKDSTYHYEINCLERRPGTDVPVTGGMYVPRYTQLNLDADTAKAMVQAADLGTNIQRLYQHELYFRTKGSKGERLNSVDLERLYQNMSVWLWNDTKYRYEEGKEDELGFKTFTEFLNCYANDAYAGGTKCSADLKKSLVDNNMIYGDGSSKAGMMNPSYPLNYMEKPLTRLMLGRSWWDLNIKVDVEKYPGSVSAKGESVTENISLYSNPTKWFAGNMQSTGLWAPAQQDVTIKSSASVPVTVTVALADDLTGREKHEVALNRPPRVTKTYTLEANGEVTFKVPYGGLIYIKGDSKDDVSANFTFTGVVKAPFYKDGEWKNDLDSPAPLGELESASFVYTTPKKNLEASNFTGGVAEFAKDLDTFASSMNDFYGRNDEDGKHRMFTYKNLTGHKHRFTNDVQISIGDAHSGYPVMNSSFSTNSTTLPTTPLNDWLIWHEVGHNAAETPLNVPGATEVANNVLALYMQDRYLGKMNRVADDITVAPEYLDESNGQAWARGGAGDRLLMYAQLKEWAEENFDIKQWYPDGELPKFYSDRKGMKGWNLFQLMHRKARGDDVGNSTFGGKNYCAESNGNAADTLMLCASWVAQADLSEFFKKWNPGASAYQLPGATEMSFQGGVSSSAYSTLASLKLPKPEKGPETINKVTEHKMSAE
notes: Expressed without the leader peptide; also called 3526 (his tag, leader peptide removed); not shown: His tag
B1: binds.
